Measured values from IntAct's records for PubMed 11297558.

B1: Adhesion G protein-coupled receptor E2 (Homo sapiens), Q9UHX3 (parent)
chain: MGGRVFLVFLAFCVWLTLPGAETQDSRGCARWCPQDSSCVNATACRCNPGFSSFSEIITTPMETCDDINECATLSKVSCGKFSDCWNTEGSYDCVCSPGYEPVSGAKTFKNESENTCQDVDECQQNPRLCKSYGTCVNTLGSYTCQCLPGFKLKPEDPKLCTDVNECTSGQNPCHSSTHCLNNVGSYQCRCRPGWQPIPGSPNGPNNTVCEDVDECSSGQHQCDSSTVCFNTVGSYSCRCRPGWKPRHGIPNNQKDTVCEDMTFSTWTPPPGVHSQTLSRFFDKVQDLGRDYKPGLANNTIQSILQALDELLEAPGDLETLPRLQQHCVASHLLDGLEDVLRGLSKNLSNGLLNFSYPAGTELSLEVQKQVDRSVTLRQNQAVMQLDWNQAQKSGDPGPSVVGLVSIPGMGKLLAEAPLVLEPEKQMLLHETHQGLLQDGSPILLSDVISAFLSNNDTQNLSSPVTFTFSHRSVIPRQKVLCVFWEHGQNGCGHWATTGCSTIGTRDTSTICRCTHLSSFAVLMAHYDVQEEDPVLTVITYMGLSVSLLCLLLAALTFLLCKAIQNTSTSLHLQLSLCLFLAHLLFLVAIDQTGHKVLCSIIAGTLHYLYLATLTWMLLEALYLFLTARNLTVVNYSSINRFMKKLMFPVGYGVPAVTVAISAASRPHLYGTPSRCWLQPEKGFIWGFLGPVCAIFSVNLVLFLVTLWILKNRLSSLNSEVSTLRNTRMLAFKATAQLFILGCTWCLGILQVGPAARVMAYLFTIINSLQGVFIFLVYCLLSQQVREQYGKWSKGIRKLKTESEMHTLSSSAKADTSKPSTVN
B2: Adhesion G protein-coupled receptor E5 (Homo sapiens), P48960 (parent)
chain: MGGRVFLAFCVWLTLPGAETQDSRGCARWCPQNSSCVNATACRCNPGFSSFSEIITTPTETCDDINECATPSKVSCGKFSDCWNTEGSYDCVCSPGYEPVSGAKTFKNESENTCQDVDECQQNPRLCKSYGTCVNTLGSYTCQCLPGFKFIPEDPKVCTDVNECTSGQNPCHSSTHCLNNVGSYQCRCRPGWQPIPGSPNGPNNTVCEDVDECSSGQHQCDSSTVCFNTVGSYSCRCRPGWKPRHGIPNNQKDTVCEDMTFSTWTPPPGVHSQTLSRFFDKVQDLGRDSKTSSAEVTIQNVIKLVDELMEAPGDVEALAPPVRHLIATQLLSNLEDIMRILAKSLPKGPFTYISPSNTELTLMIQERGDKNVTMGQSSARMKLNWAVAAGAEDPGPAVAGILSIQNMTTLLANASLNLHSKKQAELEEIYESSIRGVQLRRLSAVNSIFLSHNNTKELNSPILFAFSHLESSDGEAGRDPPAKDVMPGPRQELLCAFWKSDSDRGGHWATEGCQVLGSKNGSTTCQCSHLSSFAILMAHYDVEDWKLTLITRVGLALSLFCLLLCILTFLLVRPIQGSRTTIHLHLCICLFVGSTIFLAGIENEGGQVGLRCRLVAGLLHYCFLAAFCWMSLEGLELYFLVVRVFQGQGLSTRWLCLIGYGVPLLIVGVSAAIYSKGYGRPRYCWLDFEQGFLWSFLGPVTFIILCNAVIFVTTVWKLTQKFSEINPDMKKLKKARALTITAIAQLFLLGCTWVFGLFIFDDRSLVLTYVFTILNCLQGAFLYLLHCLLNKKVREEYRKWACLVAGGSKYSEFTSTTSGTGHNQTRALRASESGI

Variants of: B1
Details: with daf_human CD55, P08174
daf_human CD55, P08174, sequence (P08174 whole entry): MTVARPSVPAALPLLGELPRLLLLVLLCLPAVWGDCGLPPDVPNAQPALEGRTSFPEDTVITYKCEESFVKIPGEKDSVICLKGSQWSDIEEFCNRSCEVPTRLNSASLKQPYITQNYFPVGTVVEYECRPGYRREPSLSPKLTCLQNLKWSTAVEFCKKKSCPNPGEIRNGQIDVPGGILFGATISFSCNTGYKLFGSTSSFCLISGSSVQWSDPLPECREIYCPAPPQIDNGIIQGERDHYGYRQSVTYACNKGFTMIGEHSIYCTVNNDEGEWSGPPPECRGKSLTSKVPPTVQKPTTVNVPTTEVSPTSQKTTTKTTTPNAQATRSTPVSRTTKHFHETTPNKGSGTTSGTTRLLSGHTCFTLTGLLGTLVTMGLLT

Row | effect of a mutation on the interaction | Variant
1 | causing an interaction | D36N
2 | causing an interaction | L74P
3 | causing an interaction | M62T

Variants of: B2
Details: with daf_human CD55, P08174

Row | effect of a mutation on the interaction | Variant
4 | decreasing interaction strength | P71L
5 | decreasing interaction strength | T59M
6 | decreasing interaction strength | N33D
